Remaining activity data for one compound are collected here from patent publication US9176064B2, “Bisubstrate fluorescent probes for protein kinase CK2” (University of Tartu, priority 2012, dated 2015).

Where a SMILES comes first, the peptide text is derived from it. [ ]: non-standard residue; d: D form. The star is where a group is joined. X1 = O=C(CCCCCCCn1cnc2c(Br)c(Br)c(Br)c(Br)c21)*

Among the targets are EF2K (Homo sapiens, UniProt O00418); TESK1 (Homo sapiens, UniProt Q15569); MNK2 (Homo sapiens, UniProt Q9HBH9); ERK5 (Homo sapiens, UniProt Q13164); MLK1 (Homo sapiens, UniProt P80192).
Assay in all cases: Kinase panel residual activity
Common to all, as to type: biochemical
Holding throughout (settings): compound at 1 micromolar

The target in the next series is T1, DYRK2 (Homo sapiens, UniProt Q92630).
T1 sequence (Q92630 1-601): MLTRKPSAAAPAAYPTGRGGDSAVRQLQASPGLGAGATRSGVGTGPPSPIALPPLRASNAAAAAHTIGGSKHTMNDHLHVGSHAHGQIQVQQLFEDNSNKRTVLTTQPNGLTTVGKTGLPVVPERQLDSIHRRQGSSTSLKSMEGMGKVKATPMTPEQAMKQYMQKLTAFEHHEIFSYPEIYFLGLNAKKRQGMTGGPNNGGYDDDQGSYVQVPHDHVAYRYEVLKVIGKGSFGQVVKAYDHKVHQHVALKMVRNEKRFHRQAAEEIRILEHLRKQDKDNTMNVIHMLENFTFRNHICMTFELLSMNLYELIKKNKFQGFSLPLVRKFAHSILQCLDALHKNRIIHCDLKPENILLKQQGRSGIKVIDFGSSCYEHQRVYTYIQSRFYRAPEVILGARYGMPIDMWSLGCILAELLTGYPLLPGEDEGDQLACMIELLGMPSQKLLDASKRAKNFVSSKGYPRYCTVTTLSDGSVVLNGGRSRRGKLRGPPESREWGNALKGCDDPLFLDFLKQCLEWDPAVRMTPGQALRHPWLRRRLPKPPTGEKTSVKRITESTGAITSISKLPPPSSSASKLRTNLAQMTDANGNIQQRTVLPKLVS

A further series addresses T2, DYRK3 (Homo sapiens, UniProt O43781).
T2 sequence (O43781 1-588): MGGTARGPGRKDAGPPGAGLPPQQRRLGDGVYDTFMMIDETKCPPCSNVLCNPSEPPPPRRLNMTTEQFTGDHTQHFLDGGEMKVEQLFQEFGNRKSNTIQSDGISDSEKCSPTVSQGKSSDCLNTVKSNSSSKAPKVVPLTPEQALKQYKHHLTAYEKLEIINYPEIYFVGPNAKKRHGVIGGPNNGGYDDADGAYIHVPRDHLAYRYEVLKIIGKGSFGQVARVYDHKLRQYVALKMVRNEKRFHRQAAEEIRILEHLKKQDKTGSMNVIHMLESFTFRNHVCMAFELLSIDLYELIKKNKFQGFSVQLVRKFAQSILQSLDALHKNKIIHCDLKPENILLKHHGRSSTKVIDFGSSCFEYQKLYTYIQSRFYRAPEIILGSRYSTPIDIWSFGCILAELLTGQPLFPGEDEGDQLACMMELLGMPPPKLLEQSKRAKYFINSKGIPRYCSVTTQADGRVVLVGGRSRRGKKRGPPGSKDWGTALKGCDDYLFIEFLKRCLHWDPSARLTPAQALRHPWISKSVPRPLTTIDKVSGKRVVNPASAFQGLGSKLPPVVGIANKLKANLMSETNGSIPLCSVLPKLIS

The target of a further series is T3, IKKb (Homo sapiens, UniProt O14920).
T3 sequence (O14920 1-756): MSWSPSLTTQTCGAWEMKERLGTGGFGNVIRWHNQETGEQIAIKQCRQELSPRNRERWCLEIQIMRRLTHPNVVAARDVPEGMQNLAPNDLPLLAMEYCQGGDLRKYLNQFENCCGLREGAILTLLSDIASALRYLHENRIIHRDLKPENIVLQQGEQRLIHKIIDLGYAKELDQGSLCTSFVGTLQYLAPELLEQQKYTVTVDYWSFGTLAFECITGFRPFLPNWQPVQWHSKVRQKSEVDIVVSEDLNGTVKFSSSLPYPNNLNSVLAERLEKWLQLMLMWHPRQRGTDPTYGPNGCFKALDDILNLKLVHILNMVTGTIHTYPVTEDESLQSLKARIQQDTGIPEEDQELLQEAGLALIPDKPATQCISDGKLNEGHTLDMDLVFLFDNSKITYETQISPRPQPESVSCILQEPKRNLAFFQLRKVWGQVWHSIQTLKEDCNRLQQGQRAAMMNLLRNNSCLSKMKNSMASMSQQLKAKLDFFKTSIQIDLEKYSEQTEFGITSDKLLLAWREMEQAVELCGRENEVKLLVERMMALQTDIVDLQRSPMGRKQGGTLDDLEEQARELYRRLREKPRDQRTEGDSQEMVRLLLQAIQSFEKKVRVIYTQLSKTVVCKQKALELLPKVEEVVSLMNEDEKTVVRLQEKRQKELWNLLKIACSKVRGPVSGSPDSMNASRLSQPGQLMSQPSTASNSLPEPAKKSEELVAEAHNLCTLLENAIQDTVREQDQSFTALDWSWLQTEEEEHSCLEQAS

For the next series, the target named is T4, MARK4 (Homo sapiens, UniProt Q96L34).
T4 sequence (Q96L34 1-752): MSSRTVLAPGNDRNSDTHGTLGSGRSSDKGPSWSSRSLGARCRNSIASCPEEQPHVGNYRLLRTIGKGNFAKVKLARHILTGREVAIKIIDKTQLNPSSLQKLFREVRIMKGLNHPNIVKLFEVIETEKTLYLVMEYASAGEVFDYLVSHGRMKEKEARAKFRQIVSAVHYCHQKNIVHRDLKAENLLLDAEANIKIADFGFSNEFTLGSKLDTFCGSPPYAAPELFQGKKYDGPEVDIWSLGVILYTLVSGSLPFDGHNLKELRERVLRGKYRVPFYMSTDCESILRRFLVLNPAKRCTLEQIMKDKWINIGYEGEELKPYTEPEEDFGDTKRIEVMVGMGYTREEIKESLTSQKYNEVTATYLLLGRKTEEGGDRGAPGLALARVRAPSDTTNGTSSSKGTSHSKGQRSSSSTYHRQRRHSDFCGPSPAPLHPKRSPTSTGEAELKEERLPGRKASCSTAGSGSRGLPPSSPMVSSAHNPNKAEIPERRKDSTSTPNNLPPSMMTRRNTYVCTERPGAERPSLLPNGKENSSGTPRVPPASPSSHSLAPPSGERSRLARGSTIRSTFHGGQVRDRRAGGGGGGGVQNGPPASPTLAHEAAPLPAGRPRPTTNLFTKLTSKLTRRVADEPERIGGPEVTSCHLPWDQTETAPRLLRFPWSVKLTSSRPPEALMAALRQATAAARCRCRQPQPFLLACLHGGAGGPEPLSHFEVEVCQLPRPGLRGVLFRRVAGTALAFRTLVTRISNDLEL

Chain of MNK2 (Q9HBH9 whole entry, species assumed): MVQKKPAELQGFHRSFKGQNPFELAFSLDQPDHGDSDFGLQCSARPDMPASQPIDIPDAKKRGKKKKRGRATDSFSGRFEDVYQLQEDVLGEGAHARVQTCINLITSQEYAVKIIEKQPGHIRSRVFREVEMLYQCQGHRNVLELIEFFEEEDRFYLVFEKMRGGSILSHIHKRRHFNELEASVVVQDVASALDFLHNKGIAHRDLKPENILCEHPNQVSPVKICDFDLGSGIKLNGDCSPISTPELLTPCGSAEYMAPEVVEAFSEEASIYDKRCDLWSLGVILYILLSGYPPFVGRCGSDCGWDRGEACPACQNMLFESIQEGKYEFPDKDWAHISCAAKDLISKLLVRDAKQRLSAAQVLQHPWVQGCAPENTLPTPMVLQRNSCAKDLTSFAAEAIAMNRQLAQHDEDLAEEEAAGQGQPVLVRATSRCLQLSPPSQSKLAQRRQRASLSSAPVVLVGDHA
Chain of MLK1 (P80192 whole entry, species assumed): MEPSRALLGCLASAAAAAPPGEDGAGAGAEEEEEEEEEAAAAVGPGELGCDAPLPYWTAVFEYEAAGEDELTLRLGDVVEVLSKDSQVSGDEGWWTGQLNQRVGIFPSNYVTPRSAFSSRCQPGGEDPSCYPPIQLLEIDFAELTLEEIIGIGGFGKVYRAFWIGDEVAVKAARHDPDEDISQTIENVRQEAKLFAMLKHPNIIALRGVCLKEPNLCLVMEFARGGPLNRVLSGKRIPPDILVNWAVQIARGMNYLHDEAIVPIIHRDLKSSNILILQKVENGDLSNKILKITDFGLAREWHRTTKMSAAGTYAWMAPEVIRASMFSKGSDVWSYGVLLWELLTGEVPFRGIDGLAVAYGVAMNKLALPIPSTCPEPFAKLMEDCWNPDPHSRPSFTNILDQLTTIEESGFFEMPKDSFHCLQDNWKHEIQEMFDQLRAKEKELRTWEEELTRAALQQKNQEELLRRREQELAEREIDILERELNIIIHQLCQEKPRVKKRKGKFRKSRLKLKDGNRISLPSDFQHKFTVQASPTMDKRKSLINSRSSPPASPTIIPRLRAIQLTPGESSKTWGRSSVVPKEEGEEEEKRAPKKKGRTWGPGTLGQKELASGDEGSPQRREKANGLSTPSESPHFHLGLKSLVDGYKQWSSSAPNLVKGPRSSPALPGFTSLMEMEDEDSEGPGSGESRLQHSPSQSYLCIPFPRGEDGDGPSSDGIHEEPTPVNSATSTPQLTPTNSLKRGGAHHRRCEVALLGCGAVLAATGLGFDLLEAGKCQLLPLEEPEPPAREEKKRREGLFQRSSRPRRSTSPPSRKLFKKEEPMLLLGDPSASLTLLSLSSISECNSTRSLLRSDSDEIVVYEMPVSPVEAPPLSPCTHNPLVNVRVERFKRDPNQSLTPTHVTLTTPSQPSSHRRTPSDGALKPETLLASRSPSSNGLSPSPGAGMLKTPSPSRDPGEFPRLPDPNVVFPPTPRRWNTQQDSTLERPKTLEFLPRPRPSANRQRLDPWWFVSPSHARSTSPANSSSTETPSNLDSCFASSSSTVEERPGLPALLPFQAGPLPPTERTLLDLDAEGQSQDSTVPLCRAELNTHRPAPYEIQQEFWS
Chain of TESK1 (Q15569 whole entry, species assumed): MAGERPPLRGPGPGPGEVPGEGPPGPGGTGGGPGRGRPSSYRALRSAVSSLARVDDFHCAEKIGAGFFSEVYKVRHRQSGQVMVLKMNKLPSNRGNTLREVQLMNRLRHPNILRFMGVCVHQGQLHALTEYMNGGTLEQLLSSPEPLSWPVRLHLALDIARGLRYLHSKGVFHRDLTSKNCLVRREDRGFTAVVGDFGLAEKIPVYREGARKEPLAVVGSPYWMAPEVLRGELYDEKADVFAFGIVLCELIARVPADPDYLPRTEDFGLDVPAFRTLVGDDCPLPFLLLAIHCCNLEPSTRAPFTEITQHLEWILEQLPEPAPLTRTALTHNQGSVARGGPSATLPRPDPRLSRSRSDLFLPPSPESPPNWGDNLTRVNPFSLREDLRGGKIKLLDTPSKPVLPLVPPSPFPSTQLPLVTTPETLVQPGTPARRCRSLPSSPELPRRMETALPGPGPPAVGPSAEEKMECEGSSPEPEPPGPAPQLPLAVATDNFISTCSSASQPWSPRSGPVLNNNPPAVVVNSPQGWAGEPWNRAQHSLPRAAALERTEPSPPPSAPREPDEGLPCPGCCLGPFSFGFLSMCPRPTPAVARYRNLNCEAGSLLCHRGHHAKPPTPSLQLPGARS
Chain of ERK5 (Q13164 whole entry, species assumed): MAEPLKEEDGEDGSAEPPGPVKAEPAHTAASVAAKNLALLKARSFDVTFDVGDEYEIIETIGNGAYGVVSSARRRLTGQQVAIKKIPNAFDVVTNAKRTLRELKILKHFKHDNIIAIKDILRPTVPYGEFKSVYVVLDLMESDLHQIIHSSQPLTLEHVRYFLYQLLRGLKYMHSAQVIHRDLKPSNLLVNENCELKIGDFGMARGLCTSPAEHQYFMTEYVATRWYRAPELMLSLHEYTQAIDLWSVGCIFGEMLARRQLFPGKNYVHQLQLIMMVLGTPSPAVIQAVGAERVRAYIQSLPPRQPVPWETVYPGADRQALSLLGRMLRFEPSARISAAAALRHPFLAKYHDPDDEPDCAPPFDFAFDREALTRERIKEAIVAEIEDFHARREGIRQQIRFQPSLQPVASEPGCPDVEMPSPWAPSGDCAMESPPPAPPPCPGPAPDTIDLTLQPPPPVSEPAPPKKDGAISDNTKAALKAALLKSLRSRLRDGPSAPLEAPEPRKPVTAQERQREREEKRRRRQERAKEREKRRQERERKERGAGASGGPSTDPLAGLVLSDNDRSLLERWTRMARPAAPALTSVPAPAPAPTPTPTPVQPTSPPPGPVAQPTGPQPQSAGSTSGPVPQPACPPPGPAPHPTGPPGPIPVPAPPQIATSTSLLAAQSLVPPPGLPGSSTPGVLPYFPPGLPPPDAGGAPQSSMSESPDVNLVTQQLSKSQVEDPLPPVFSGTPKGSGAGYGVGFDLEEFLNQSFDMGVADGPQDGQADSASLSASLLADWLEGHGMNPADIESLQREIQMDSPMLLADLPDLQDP
Chain of EF2K (O00418 whole entry): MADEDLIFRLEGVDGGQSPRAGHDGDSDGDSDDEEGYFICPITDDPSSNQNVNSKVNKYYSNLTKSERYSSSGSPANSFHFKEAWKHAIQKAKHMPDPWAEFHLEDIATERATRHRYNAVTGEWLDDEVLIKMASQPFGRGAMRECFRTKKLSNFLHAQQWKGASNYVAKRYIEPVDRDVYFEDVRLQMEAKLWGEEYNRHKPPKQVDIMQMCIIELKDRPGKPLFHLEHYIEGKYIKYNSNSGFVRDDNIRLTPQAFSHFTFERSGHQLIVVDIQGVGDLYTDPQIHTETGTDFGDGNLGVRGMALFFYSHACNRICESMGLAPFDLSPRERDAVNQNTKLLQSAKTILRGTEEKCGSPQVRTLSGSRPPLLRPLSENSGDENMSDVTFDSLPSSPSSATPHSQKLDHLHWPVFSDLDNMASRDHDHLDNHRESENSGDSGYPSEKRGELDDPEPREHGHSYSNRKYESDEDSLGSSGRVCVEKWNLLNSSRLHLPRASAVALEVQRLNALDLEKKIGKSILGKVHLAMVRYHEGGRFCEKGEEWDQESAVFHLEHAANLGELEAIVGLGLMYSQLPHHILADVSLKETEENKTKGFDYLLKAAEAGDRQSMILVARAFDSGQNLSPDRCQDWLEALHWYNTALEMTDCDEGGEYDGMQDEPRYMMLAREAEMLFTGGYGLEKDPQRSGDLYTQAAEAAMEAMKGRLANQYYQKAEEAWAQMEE

For orientation: remaining activity means the signal under treatment as a percentage of the control signal. As for `NCCCC[C@H](NC(=O)[C@H](CC(=O)O)NC(=O)[C@H](CC(=O)O)NC(=O)[C@H](CC(=O)O)NC(=O)[C@H](CC(=O)O)NC(=O)[C@H](CC(=O)O)NC(=O)[C@@H](CC(=O)O)NC(=O)CCCCCCCn1cnc2c(Br)c(Br)c(Br)c(Br)c21)C(=O)O` [TBBI-OcA-(D-Asp)-(L-Asp)5-(L-Lys)-OH] (X1-[dD]DDDDDK-OH), the remaining activity at 1 µM with DYRK2 was found to be 17%; in the series with DYRK3, 30%; in the series with IKKb it was 55%; in the series with MARK4 it was 75%; in the series with EF2K, 80%; with TESK1 it was 81%. Besides, the remaining activity at 1 µM with MNK2 was found to be 89%; in the series with ERK5 it was 98%; in the series with MLK1, 112%.
